Key:
biotinylated BSA = target: T1, biotinylated BSA (bovine, UniProt P02769 25-607, biotinylated); assay: direct TR-FRET, scFv coated
T1 construct: Control protein in the direct TR-FRET assay, at 50 ug/mL; also called biotinylated control protein; bovine serum albumin
Experimental: FIG. 4. Direct TR-FRET binding assays between scFvs and atheromatous tissue extracts. Direct TR-FRET principle is schematized at the top. The donor fluorophore europium cryptate (Eu)K conjugated to anti-c-myc mAb was able to recognize c-myc tag expressed by scFvs. The acceptor fluorophore XL665 conjugated to streptavidin bound biotinylated protein extract. When scFvs and target proteins bound, a FRET signal was recorded. […] Specific TR-FRET signal was measured as a percentage DeltaF (percent DeltaF). The time course of the detection of the complex formation was performed after 6 hours (▪), 16 hours ( ), 24 hours ( ) and 40 hours (□) of incubation at 4° C. Ten microliter of scFv were coated on the plate at concentrations between 3 and 10 μg/mL according to the clone. The signals were measured in the presence of 4 nmol/L of mAb-(Eu)K, 4 nmol/L of streptavidin-XL665, and 30 μg/mL of biotinylated atheromatous protein extract or 50 μg/mL of biotinylated BSA (data not shown). Histobar values represent the average of at least three independent experiments±SD performed from the same purified scFv production.
Binding assays between scFvs and atheromatous protein extracts were assessed by direct TR-FRET. Black Fluotrac 600 microplate (Greiner) was coated with 10 μL of scFv (final concentration comprised between 3 and 10 μg/mL according to the clone) in 0.1 mol/L NaHCO₃, pH 8.6 for 16 hours at 4° C. Subsequently, plates were blocked for 3 hours at 4° C. using 1% BSA (w/v) in PBS solution. Following washing in PBS, 30 μg/mL of biotinylated atheromatous protein extract in 1% BSA/PBS was incubated for 16 hours at 4° C. After washing in PBS, 50 μL of reaction buffer (100 mmol/L Phosphate buffer, pH 7; 400 mmol/L KF buffer; 0.1% BSA), 4 nmol/L of anti c-myc-(Eu)K (Cisbio Bioassays, Codolet, France) and 4 nmol/L of streptavidin-XL665 (Cisbio Bioassays) were incubated in a final volume of 100 μL. FRET signal emission was measured and monitored with an Infinite® F500 reader (Tecan, Lyon, France) on a 40-hour time course. The percent DeltaF values reported the intensity of the direct binding between scFvs and protein extract.

[1] = target: human recombinant carbonic anhydrase II (human, UniProt P00918 1-260); assay: ELISA, CA-II coated at 10 µg/mL, scFv at 10 µg/mL
Experimental: Ninety-six well ELISA microtiter plates (Greiner) were coated overnight, at 4° C., with 100 µL of human recombinant carbonic anhydrase II (Sigma-Aldrich, St louis, USA) at a final concentration of 10 μg/mL, or bovine serum albumin at 50 μg/mL in carbonate buffer (NaHCO3/Na2CO3, 50 mmol/L, pH 9.6). All further reactions were carried out at room temperature. Following three washing steps with PBS-Tween 20 (0.5% Tween 20), 100 μL of purified K3.1 scFv at 10 μg/mL were added to each well. After a 2-h incubation and five washing steps, bound scFv was labeled with a mix of HRP-conjugated anti c-myc (diluted 1/1000, Miltenyi Biotech) and anti 6His (diluted 1/500, Roche Diagnostics) mAbs. After 1-h incubation and washing steps, color was developed with 100 μL of 3,3′,5,5′-Tetramethylbenzidine (TMB) liquid substrate system for ELISA (Sigma) and the absorbance was read at 450 nm with an Infinite® F500 reader (Tecan, Lyon, France).

[2] = target: T2, rabbit cytosolic carbonic anhydrase isoenzyme II (CA-II) (rabbit, UniProt P00919 2-260); assay: immunoprecipitation from rabbit atherosclerotic lysate on nickel beads, SDS-PAGE, LC-MS/MS
T2 construct: Pulled down from the lysate of rabbit atherosclerotic aorta; also called CA-II protein; protein with an apparent molecular mass of ~29 kDa
Experimental: Nickel-coated superparamagnetic beads (Ademtech, Pessac, France) were pre-washed three times with 500 μL of Binding Buffer (BB) (20 mmol/L Tris, pH 7; 500 mmol/L NaCl) and then incubated for 1 hour with 1 mg of rabbit atheromatous proteins solubilized in low stringent lysis buffer in order to get rid of nonspecific binding proteins. The supernatant free of nonspecific binding proteins was recovered and incubated with 10 μg of purified K3.1 scFv or of an irrelevant scFv for 16 hours at 4° C. under rotation. The next day, 20 μL of clean pre-washed superparamagnetic beads were added and incubated for a further 1 hour at 20° C. After three washings with 500 μL of BB, the immunoprecipitated complexes were eluted with 2×30 μL of elution buffer (20 mmol/L Tris-HCl, pH 7.5; 500 mmol/L NaCl; 100 mmol/L imidazole). The protein complexes were then separated using 10% SDS-PAGE under reducing conditions. The band was excised and submitted to trypsin digestion, followed by liquid chromatrography-tandem mass spectrometry analysis (LC-MS/MS).
To identify the molecule recognized by purified K3.1 scFv, immunoprecipitation experiments using nickel superparamagnetic beads were performed to retain 6H is-tagged scFvs complexed to antigens contained in the rabbit atherosclerotic protein lysate. […]

T1 sequence (P02769 25-607 limits assumed): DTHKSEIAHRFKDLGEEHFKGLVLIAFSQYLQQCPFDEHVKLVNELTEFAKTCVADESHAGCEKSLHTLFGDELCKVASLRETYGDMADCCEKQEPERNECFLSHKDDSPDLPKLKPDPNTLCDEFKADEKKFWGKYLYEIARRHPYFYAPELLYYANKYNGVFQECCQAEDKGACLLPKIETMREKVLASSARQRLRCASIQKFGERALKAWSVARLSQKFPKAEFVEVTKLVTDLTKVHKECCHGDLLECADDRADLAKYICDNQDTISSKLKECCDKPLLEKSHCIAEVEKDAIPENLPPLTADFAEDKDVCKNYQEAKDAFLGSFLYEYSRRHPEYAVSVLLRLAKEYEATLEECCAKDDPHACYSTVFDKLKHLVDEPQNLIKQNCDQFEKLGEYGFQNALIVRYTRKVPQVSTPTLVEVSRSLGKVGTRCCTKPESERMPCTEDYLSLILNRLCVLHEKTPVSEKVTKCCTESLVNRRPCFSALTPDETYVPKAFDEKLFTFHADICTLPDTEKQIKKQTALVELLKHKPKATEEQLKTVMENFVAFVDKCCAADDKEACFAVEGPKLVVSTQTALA

Row | binding result [1] | binding result [2] | Binder | binding result (biotinylated BSA)
1 | – | – | H2.1 scFv antibody (scFv, Soluble scFv with c-myc and 6His tags) scFv: EVQLVESGGSLVKPGGSLRLSCAASGFTFSNYSMNWVRQAPGKGLEWISSISGSSRYIYYADFVKGRFTISRDNATNSLYLQMNSLRAEDTAVYYCVRGGVDSSGDNCFDLWGRGTLVTVSSGGGGSGGGGSGGGGSQSVLTQPASVSGSPGQSITISCAGTSSDVGGYNYVSWYQQHPGKAPKLMIYEDSKRPSGVSNRFSGSKSGNTASLTISGLQAEDEADYYCTSYGSGATLVFGGGTKLAV | no binding (tested: 50 µg/mL of biotinylated BSA)
2 | – | – | I8.1 scFv antibody (scFv, Soluble scFv with c-myc and 6His tags) scFv: EVQLVESGGSLVKPGGSLRLSCAASGFTFSNYSMNWVRQAPGKGLEWISSISGSSRYIYYADFVKGRFTISRDNATNSLYLQMNSLRAEDTAVYYCVRNSFYASWSKDYSMEIWGRGTLVTVSSGGGGSGGGGSGGGGSQSVLTQPASVSGSPGQSITISCAGTSSDVGGYNYVSWYQQHPGKAPKLMIYEDSKRPSGVSNRFSGSKSGNTASLTISGLQAEDEADYYCQSWASRINIFGGGTKLAV | no binding (tested: 50 µg/mL of biotinylated BSA)
3 | – | – | C3.3 scFv antibody (scFv, Soluble scFv with c-myc and 6His tags) scFv: EVQLVESGGSLVKPGGSLRLSCAASGFTFSNYSMNWVRQAPGKGLEWISSISGSSRYIYYADFVKGRFTISRDNATNSLYLQMNSLRAEDTAVYYCVRGIDGGGGWNYFDHWGRGTLVTVSSGGGGSGGGGSGGGGSQSVLTQPASVSGSPGQSITISCAGTSSDVGGYNYVSWYQQHPGKAPKLMIYEDSKRPSGVSNRFSGSKSGNTASLTISGLQAEDEADYYCRQPSNSPPLNFGGGTKLAV | no binding (tested: 50 µg/mL of biotinylated BSA)
4 | binds | binds | K3.1 scFv antibody (scFv, Human scFv from a semi-synthetic library (13R4 framework), made soluble in E. coli HB2151 and purified on nickel; It carried c-myc and 6His tags in the assays) scFv: EVQLVESGGSLVKPGGSLRLSCAASGFTFSNYSMNWVRQAPGKGLEWISSISGSSRYIYYADFVKGRFTISRDNATNSLYLQMNSLRAEDTAVYYCVRGEGLYSGSYNLHYWGRGTLVTVSSGGGGSGGGGSGGGGSQSVLTQPASVSGSPGQSITISCAGTSSDVGGYNYVSWYQQHPGKAPKLMIYEDSKRPSGVSNRFSGSKSGNTASLTISGLQAEDEADYFCGTPNTHALWVFGGGTKLAV | no binding (tested: 50 µg/mL of biotinylated BSA)
